Source: patent US20260069676A1 (University of California, published 2026)

Target: T1, MHC I (H2Kb) on dendritic cells (;mouse, UniProt P01887 21-119; P01901 22-369)
T1 construct: whole, on cells; also called MHC I molecules of DC2.4 cells
T1 sequence (MHC heavy): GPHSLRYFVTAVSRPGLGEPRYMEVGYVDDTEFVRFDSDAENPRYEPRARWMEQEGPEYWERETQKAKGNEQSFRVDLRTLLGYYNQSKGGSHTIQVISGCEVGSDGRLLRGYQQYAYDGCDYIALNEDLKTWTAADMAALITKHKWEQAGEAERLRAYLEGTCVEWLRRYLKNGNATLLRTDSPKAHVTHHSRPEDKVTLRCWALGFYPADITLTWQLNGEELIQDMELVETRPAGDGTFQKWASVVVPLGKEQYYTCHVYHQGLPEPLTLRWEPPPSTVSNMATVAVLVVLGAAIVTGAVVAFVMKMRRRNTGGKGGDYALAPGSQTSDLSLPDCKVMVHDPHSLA
T1 sequence (b2m): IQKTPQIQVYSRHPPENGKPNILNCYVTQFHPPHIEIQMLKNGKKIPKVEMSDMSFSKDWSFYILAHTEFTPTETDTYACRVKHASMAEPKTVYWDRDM
Test: competition with pre-loaded SIINFEKL on dendritic cells, flow cytometry with SIINFEKL/H2Kb-specific antibody

B1: LTDEMIAQY peptide (MHC I peptide, SARS-CoV-2 spike T cell epitope) (peptide)
peptide: LTDEMIAQY
notes: Synthetic peptide (Anaspec), derived from the SARS-CoV-2 spike protein; also called LTD peptide (MHC I); LTD-MHC I peptide
binding result: binds
